Source: the nanobody polyreactivity screen of Harvey et al. (2022)

Test: yeast display, Sf9 membrane polyspecificity reagent, FACS + sequencing; frameworks hold sequencing errors
Procedure, shortened: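 Galactose-induced (36–48 hours) yeast carrying a synthetic nanobody display library were exposed to 10% biotinylated, detergent-solubilized Sf9 membrane reagent at 4 °C for 1 hour. FACS followed streptavidin microbead enrichment, using low and high (top ~1%) gates for expression (anti-HA) and reagent binding (streptavidin). Colony PCR, MiSeq 2 × 250 sequencing and CDR-length filtering followed. Labels for polyreactivity reflect the gate of origin.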

| Sequence | polyreactivity (PSR sort gate) |
| --- | --- |
| QGQLVESGGGLVQAGGSLRLSCAASGSTFGYNVMGWYRQATGKERELVAAINYSGVRTYYADSVKGRFTISRDNAKNTVYLQMNSLIPEDTAVYYCNATPTRAVGPYQYNYWGQGTQVTVSS | high polyreactivity |
| QVQLVESGGGLVQAGRSLRLSCAASGSTIVGYAIGWYRQAPGKDRELVAAISGSGTSTYYADSVKGRFTISRDNAKNTVYLHMISMKPEHTAVYYCIADPIFVYSSYNFWGQGTQVTVSS | low polyreactivity |
| QVQLVESGGGLVQAGGSLRLSCAASGRTFEQYAMGWYRQAPGKERELVAAISGSGGSTFYADSVKGRFTISRDNAKNTVYLQMNSLKPEDTAVYYCAVDAYPPFFYFTSVWFSYDYWGQGTQVTVSS | low polyreactivity |
| QVQLEESGGGLVQAGGSLRLSCAASGRIFTRYALGWYRQAPGKERELVAAITGSGGSTYYADSVKGRFTISRDNAKNTVYLQMNSRKPEDTAVYYCATDFYCYRSYNYWGQGTQVTVSS | high polyreactivity |
| QVQHVESGGALVQAGGSLRLSCAASGSTYYIYAMGWYRHGPGKERELVARISGSGGSTYYADSVKGRFTISRDNAKNTVYLQMNSLKPEDTAVYYCAADDIYKYYQYYAFQYFRYDYWGQGTQVTVSS | low polyreactivity |
| QVQLVESGGGLVQAGGSLRLSCAATGLTFWVNAMAWYRQAPGKERELVADITRSGGITNYADSVKGRFTISRDNANNTVYLQMNSLKPEDNAVYYCNADQRVDHDDFDYWGKGTQVTVSS | low polyreactivity |
| QVQLVESGGGLVQAGGSLRLSCAASGSTFSANPMGWYRQAPGKERELVASISRRGGSTYYADSVKGRFTISRDNAKNTVYLQMNNLKPEDTAVYYCAAYYEYRRDYWGQGTQVTVSS | high polyreactivity |
| QVQLVESGGGVVQAGGSLRLSCAASGITFEYNAMGWYRQAPGKERELVAAISLSSGSTYYADSVKGRFTISRDNAKNTVYLQMNCLKPEDTAVYYCNADWQSYGYLWHSSLYYYWGQGTQVTVSS | low polyreactivity |
| QVQVVESGGGLVQAGGSLRLSCAASGSTFSRNAMGWYRQAPGKERELVAAINYSGGITYYADSVKGRFTISRDNAKNTVYLQMNSQKPEDTAVYYCAAVATNVPTHGRPSRRAYDYWGQGTQVTVSS | low polyreactivity |
| QVQLVESGGGLVQAGGSLRLSCAASGRIYFYNALGWYRQAPGKERELVATITRSGGRTYYADSVKGRFTISRDNAKNTVYLQMNSLKPEDTAVYYCAAYPTNNLYPNLEYWGQGTQVTVSS | high polyreactivity |
| QVQLVESGGGLVQAGGSLRLSCAASGSIFWGNAMGWYRQAPGKERELVAAITSGGSTNYADSVKGRFTISRDNAKNTVYLQMNSLKPEDTAVYYCIADVARVPFEFDYWGQGTQVTVSS | low polyreactivity |
| QVQLVESGGRLVQAGGSLRLICADSGGIFGRYAMGWSRQAHGKERELVAAISKNGDSTYYAYSVKGRFTISRDNAKNTVYLKMNSLKPEDTAVYYCAAAKYRPKYGKNDYLGQGTQVTVSS | low polyreactivity |
| QVQLVESGGGLVQAGGSLRLSCAASGFTFRGYAMGWYRQAPGKERELVADITSGGSTYYADSVKGRFTISRDNAKNTVYLQMNSLKPEDTAVYYFATDILYWSDYAYEGYYTLDYYWGQGTQVTVSS | high polyreactivity |
| QVQLVESGGGLVQAGVSLRLSCASTGLTFRYYAMGWYRQAPGKERELVAAISSGTGTYYADSVKGRFTISRDNAKNTVYLQMNSLKPEDTAVYYCAAVFFRARVIRGYNYWGQGTQVTVSS | high polyreactivity |
| QVQLVESGGGLVQAGGSLRLSWAASGRTLKYNAMGWYRQAHGKERELVSAISYSGSSTYYADSVKGRFTISRDNAKNTVYLQMNSLKPEDTAVYYCNTARPTAAYDYWGQGTQVTVSS | low polyreactivity |
| QVQLVESGGGLVQAGGSLRLSCAASGSIFVHYAMGWYRQAPGKERELVARISWRGNTYYADSVKGRFTISRDNAKNTVYLQMNSLKPEDTAVYYCAAEYFWYYYYLMDYWGQGTQVTVSS | low polyreactivity |
| QVQLVESGGGLVQAGGSHRLSCAASGRIFAHNAMGWYSQAPGKERELVAAITWSGGSTYYADSVKGRFTISRDNAKNTVYLQMNSLKPEDTAVYYCNTDSHGHLYNYWGQGTQVTVSS | low polyreactivity |
| QVQLVESGGGLVQAGRSLRLSCAASGRIFGWYAMGWYRQAPGKERELVAAIRWSGGSTYADSVKGRFTISRDNAKNTVYLQMNSLKPEDTAVYYCAALQRTGPYAGSSGYWGQGTQVTVSS | high polyreactivity |
| QVQLVESGGGLVQAGGSLRLSCAASGRTFRGYAMGWYRQAPGKERELVAAISWSGGSTYYADSVKGRFTISRDNAKNTVYLQMNSLKPEDTAVYYCNAVYRGVAYDYWGQGTQVTVSS | high polyreactivity |
| QVQLVESGGGLVQAGGSLRLSCAASGRTIPWNVMGWYRQAPGKERELVATITSRRTSTNYADSVKGRFTISRDNAKNTVYLQMNSLKPEDTAVYYCARRTVWGAGHYYYWGQGTQVTVSS | high polyreactivity |
| QVQLVESGGGLVQAGGSLRFSCAASGSIFYGYTMGWYRQAPGKERELVAGISTYYADSVKGRFTISRDTAKNTVYLQMNSLKPEDTAVYYCAADYSSPTSEYDYWGQGTQVTVSS | low polyreactivity |
| QVQLVESGGGLVQAGGSLRLSCAASGSIFHRNTMGWYRQAPGKERELVAAIRRGGSTYYADSVKGRFTISRDNAKNTVYLQMNSLKPEDTAVYYCAADFPGEYYYWGQGTQVTVSS | high polyreactivity |

| Sequence | polyreactivity (PSR sort gate) |
| --- | --- |
| QVQLVESGGGLVQAGGSLRLSCAASGSTFTAYAMGWYRQAPGKERELVAAISKRSGGTYYADSVKGRFTISRDNAKNTVYLQMNSLKPEVTAVYYCGQGTQVTVSS | low polyreactivity |
| QVQLVESGGGLVQAGRSLRLSCAASGLISRRNAMGWYRQAPGKQRELVAAISTGSSTNYADSVKGRFTISRDNAKNTVYLQMNSLKPEDTAVYYCASTQYWWSTLGIRDDYWGQGTQVTVSS | low polyreactivity |
| QVQLVESGGGLVQAGGSLRLSCAASGFTFYKNTMGWYRQAPGKERELVAAISGSGGRTYYADSVKGRFTISRDNAKNTVYLQMTSLKPEDTAVYYCNAAARYRWQYVYSLYEYGHWGQGTQVTVSS | high polyreactivity |
| QVQLVESGGGLVQAGGSLRLSCAASGRILGKNAMGWYRQAPRKERELVAAISGRGDRTHYADSVKGRFTISRDNAKNTVYLHMNSLKPEDTAVYYCAKDHHPPAKGQSVSLGYDYWGQGTQVTVSS | low polyreactivity |
| QVQLVESGGGLVQAGGSLSLSCAASGYIFSSNTMGWYRQAPGKERELVAGITASATITYYADSVKGRFTISRDNAKNTVYLQMNSLKPEDTAVYYCAADPVLGVFKFEYWGQGTQVTVSS | low polyreactivity |
| QVQLVESGGGLVQAGGSLRLSCAASGFTYNRYAMGWYRQAPGKERELVAGISWGGGSTYYADSVKGRFTISRDNAKNTVYLQMNSLKPEDTAVYYCAAGWQHYRRYGSYDYWGQGTQVTVSS | high polyreactivity |
| QVQLVETGGGLVQAGGTLRLSCAASGRIFRRYAMVWYRQAPGKEREFVAAITDGSTYYADSVKGRFTISRDNAKNTVYLQMNSLNPEDPAVYYCATQFGWSYSRRFYYWGQGTQVTVSS | high polyreactivity |
| QVQLVESGGGLVQAGGSLRLSCAASGSIFPINARGWYREAPGKERELVAVITSGGGGTYYADSVKGRFTISRDNAKNTVYLQMNCLTPEDTAVYYCAKRLSRKWQKFGYWGQGTQVTVSS | low polyreactivity |
| QVQLVESGGGLVQAGGSLRLSSAASGNINSWNTMGWYRQAPGKERELVAAITFRGTRTFYADSVKGRFTISRDNAKNTVYLQMNSLKPDDTAVFYCAARYYYSYSLGYDYWGQGTQVTVSS | high polyreactivity |
| QVQLVESGGGLVQAGGSLRLSCAASGFTFGPYDMGWYRQAPGTERELVAAITDSSGSTHYADSVKGRFTLSRDNAKNTFYLQMNSLKPEDTAVYYCAADVSSRTTYDYWGQGTQVTVSS | low polyreactivity |
| HVQLEESGGGEVQAGGSLRLTCAASGLIYTTYAMGWYRPAPGTERELVAAISRRGSRTYYADSVKGRFTISRDNAKNTVYLQMNSLNPEDTAVYYCNALTGSFKTDSFDYWGQGTQVTVSS | high polyreactivity |
| QVQLVESGGGLVQAGGSLRLSCAASGRIFYHYAMGWYRQAPGKERELVAASNSSGGSTHYADSVKGRFTISRDNAKNTVYLQMNSLKPEDTAVYYCAADGYWRDYSGYWDYYYIYDYWGQGTQVTVSS | low polyreactivity |
| QDQLVESGGGLVQAGGTLRLSCAASGRIFPYNAMGWYRQAPGKERQLVAAISKSGVRTYYADSVKGRFTISRDNAKNTVYLQMNSLNPEETAVYYCAKLSPYGGDVGASEGPEYDYWGQGTQVTVSS | high polyreactivity |
| QVQLVESGGGLVQAGGSLRLSCAASGSIFDGYAMGWYRQAPGKEREFVASIRFSTGRTYYADSVKGRFTISRDNAKNTVYLQMNSLKPEDTAVYYCNAPQGFVWRYSSWGPYDYWGQGTQVTVSS | high polyreactivity |
| QVQLEESGGGLVQAGGSLRLSCAASGIIFATYAMGWYTQAPGKDRELVAAISSGGRTYYADSVKGRFTISRDNAKNTVYFQMNSLKPEDTAVYYCAAKSGGRSSLYNYWGQGTQVTVSS | high polyreactivity |
| QVQLVESGGGLVQAGGSLRLSCAAYGRIFWLYAMGWYRQAPGKERELVAVISWSGGTTYYADSVKGRFTISRDNAKNTVYLQMNSLKPEVTAVYYCAKQGWTSYDYWGQGTQVTVSS | low polyreactivity |
| QVQLEESVGGLVQAGGSLRISCAASGRTFKLYAMGRKRQAPGKERELVATITRRGGSTYYADSVKGRFTISRDNAKNTVYLQMNSLKPEDTAVYYCASDAIGYYGTYDYWGQGTQVTVSS | high polyreactivity |
| QVQLVESGGGLVQAGGSLRLSCAASGSTFQQYAMGWYRQAPGKERELVAAITGSTGSTYYADSVKGRFTISRDNAKNTVYLQMNSLKPEDTAVYYCNAVRYSRYYRKYNYWGQGTQVTVSS | high polyreactivity |
| QVQLVESGGGLVQAGGSLRLSCAASGRTFNVNVMGWSRQAPGKERELVAAIRYTGGSTYADSVKGRFTISRDNAKNTVYLQMNSLKPEDTAVYYCNADTFFPFDHGMDYWGQGTQVTVSS | low polyreactivity |
| QVQLVESGVGLVQAGGSLRLSCAASGITSRYYAMGCYRQAPGKERELVAAISGNGGRTYYADSVKGRFTISRDIAKNSVYFQMNSMKPEDTAVYYCAARAHKTRHNYWGQGTQVTVSS | high polyreactivity |
| QVQLVESGGGLVQAGGSLRLSCASSGSTFPGNAMGWYRQAPGKERELVAAIRDRGTSTYYADSVKGRFTISRDNAKNNVYLQMNSLKPEDTAVYYCAAASRVAKGRWRLYDDWGQGTQVTVSS | high polyreactivity |
